# Paper PMC10247848
# Key:
# [1] = Pi release from G6P in HeLa lysates, 24 h; details: glycan lost; control: wild type
# [2] = Western blot, total hG6Pase-α in HeLa lysates, 24 h; details: glycan lost; control: wild type
protein,measurement,setting,value
human glucose-6-phosphatase-α (hG6Pase-α): N96A (protein) parent chain: MEEGMNVLHDFGIQSTHYLQVNYQDSQDWFILVSVIADLRNAFYVLFPIWFHLQEAVGIKLLWVAVIGDWLNLVFKWILFGQRPYWWVLDTDYYSNTSVPLIKQFPVTCETGPGSPSGHAMGTAGVYYVMVTSTLSIFQGKIKPTYRFRCLNVILWLGFWAVQLNVCLSRIYLAAHFPHQVVAGVLSGIAVAETFSHIHSIYNASLKKYFLITFFLFSFAIGFYLLLKGLGVDLLWTLEKAQRWCEQPEWVHIDTTPFASLLKNLGTLFGLGLALNSSMYRESCKGKLSKWLPFRLSSIVASLVLLHVFDSLKPPSQVELVFYVLSFCKSAVVPLASVSVIPYCLAQVLGQPHKKSL,"enzymatic_activity, percent_of_wt",[1],"abolishes, 0.9 ± 0.8 vs 100 ± 21.6"
same,"expression_or_secretion, percent_of_wt",[2],"no change, 109.0 ± 16.9 vs 100.0 ± 8.2"
